Source: patent publication US20230158141A1 (YAFEI SHANGHAI BIOLOG MEDICINE SCIENCE AND TECHNOLOGY, published 2023)
Changes are numbered by the printed parent chain. Names may count otherwise.

B1: anti-CTLA-4 antibody light chain A35C-R4-1 (antibody, human IgG1, kappa, V domains shown)
VH: QVQLVESGGGVVQPGRSLRLSCAASGFTFSSYTMHWVRQAPGKGLEWVTFISYDGNNKYYADSVKGRFTISRDNSKNTLYLQMNSLRAEDTAIYYCARTGWLGPFDYWGQGTLVTVSS
VL: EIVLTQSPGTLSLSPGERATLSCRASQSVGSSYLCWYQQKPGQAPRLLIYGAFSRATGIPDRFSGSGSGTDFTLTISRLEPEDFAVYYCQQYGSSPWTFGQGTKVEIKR
modifications: R4-1 on Cys 35
B2: anti-CTLA-4 antibody light chain G30C-R4-1 (antibody, human IgG1, kappa, V domains shown)
VH: B1 VH
VL: not shown
modifications: R4-1 on Cys 30
B3: anti-CTLA-4 antibody light chain G58C-R4-1 (antibody, human IgG1, kappa, V domains shown)
VH: B1 VH
VL: not shown
modifications: R4-1 on Cys 58
B4: anti-CTLA-4 antibody light chain G93C-R4-1 (antibody, human IgG1, kappa, V domains shown)
VH: B1 VH
VL: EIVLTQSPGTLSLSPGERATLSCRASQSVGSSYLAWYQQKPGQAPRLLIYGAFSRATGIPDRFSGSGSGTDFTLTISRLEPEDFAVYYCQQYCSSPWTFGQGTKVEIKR
modifications: R4-1 on Cys 93
B5: Ipilimumab L32 Tyr to Cys (antibody, V domains shown)
VH: B1 VH
VL: not shown
modifications: chain 2 pos 33 (Kabat L32): introduced Cys carrying the conjugated group of the row (R4-7, R4-8 or S47), written C
B6: Ipilimumab L54 Arg to Cys (antibody, V domains shown)
VH: B1 VH
VL: not shown
modifications: chain 2 pos 55 (Kabat L54): introduced Cys carries R4-26 (or S47, 40 kD PEG linker) on its thiol, written C
B7: anti-PD-1 antibody 1 light chain A25C (antibody, human IgG4 S228P, kappa, V domains shown)
VH: QVQLVQSGVEVKKPGASVKVSCKASGYTFTNYYMYWVRQAPGQGLEWMGGINPSNGGTNFNEKFKNRVTLTTDSSTTTAYMELKSLQFDDTAVYYCARRDYRFDMGFDYWGQGTTVTVSS
VL: EIVLTQSPATLSLSPGERATLSCRCSKGVSTSGYSYLHWYQQKPGQAPRLLIYLASYLESGVPARFSGSGSGTDFTLTISSLEPEDFAVYYCQHSRDLPLTFGGGTKVEIKR
B8: anti-PD-1 antibody 1 light chain A55C (antibody, human IgG4 S228P, kappa, V domains shown)
VH: B7 VH
VL: B7 VL with C25A, A55C
B9: anti-PD-1 antibody 1 light chain L37C (antibody, human IgG4 S228P, kappa, V domains shown)
VH: B7 VH
VL: B7 VL with C25A, L37C
B10: anti-PD-1 antibody 1 light chain L54C (antibody, human IgG4 S228P, kappa, V domains shown)
VH: B7 VH
VL: B7 VL with C25A, L54C
B11: anti-PD-1 antibody 1 light chain T31C (antibody, human IgG4 S228P, kappa, V domains shown)
VH: B7 VH
VL: B7 VL with C25A, T31C
B12: anti-PD-1 antibody 1 light chain T101C (antibody, human IgG4 S228P, kappa, V domains shown)
VH: B7 VH
VL: B7 VL with C25A, T101C
B13: anti-PD-1 antibody 2 light chain A25C (antibody, human IgG4 S228P, kappa, V domains shown)
VH: QVQLVESGGGVVQPGRSLRLDCKASGITFSNSGMHWVRQAPGKGLEWVAVIWYDGSKRYYADSVKGRFTISRDNSKNTLFLQMNSLRAEDTAVYYCATNDDYWGQGTLVTVSS
VL: EIVLTQSPATLSLSPGERATLSCRCSQSVSSYLAWYQQKPGQAPRLLIYDASNRATGIPARFSGSGSGTDFTLTISSLEPEDFAVYYCQQSSNWPRTFGQGTKVEIKR
B14: anti-PD-1 antibody 2 light chain A51C (antibody, human IgG4 S228P, kappa, V domains shown)
VH: B13 VH
VL: B13 VL with C25A, A51C
B15: anti-PD-1 antibody 2 light chain A55C (antibody, human IgG4 S228P, kappa, V domains shown)
VH: B13 VH
VL: B13 VL with C25A, A55C
B16: anti-PD-1 antibody 2 light chain A60C (antibody, human IgG4 S228P, kappa, V domains shown)
VH: B13 VH
VL: B13 VL with C25A, A60C
B17: anti-PD-1 antibody 2 light chain I58C (antibody, human IgG4 S228P, kappa, V domains shown)
VH: B13 VH
VL: B13 VL with C25A, I58C

What follows are binders tested against CTLA-4 (UniProt P16410 36-162, limits assumed) (assay: ELISA, conjugate vs WT antibody).
Target sequence in this assay (P16410 36-162 limits assumed): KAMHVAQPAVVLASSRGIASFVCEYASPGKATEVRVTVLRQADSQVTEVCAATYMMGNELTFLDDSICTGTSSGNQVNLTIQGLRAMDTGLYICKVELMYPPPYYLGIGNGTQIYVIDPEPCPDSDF

Binder	binding activity (% of WT)
B1	91.5%
B2	95.3%
B3	88.1%
B4	99.1%

Each binder was assayed against T1, CTLA-4 (UniProt P16410 36-162, limits assumed) (assay: ELISA; S47 on the Cys).
T1 construct: also called CTLA-4 protein
T1 sequence (P16410 36-162 limits assumed): as above

Binder	Activity after S47 (40 kD) blocking
B5	13%
B6	17%

The binders below were run against PD-1 (UniProt Q15116 25-167, limits assumed) (assay: ELISA, OD mutant/OD WT; B=70-90%).
Chain of PD-1 (Q15116 25-167 limits assumed): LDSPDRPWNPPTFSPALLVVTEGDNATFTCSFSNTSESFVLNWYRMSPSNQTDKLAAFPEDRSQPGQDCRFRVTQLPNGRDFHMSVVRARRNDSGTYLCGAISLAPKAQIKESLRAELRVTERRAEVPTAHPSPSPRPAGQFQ

Binder	binding activity (OD after mutation/OD wild type)
B7	70 to 90%
B8	70 to 90%
B9	70 to 90%
B10	70 to 90%
B11	70 to 90%
B12	70 to 90%
B13	70 to 90%
B14	70 to 90%
B15	70 to 90%
B16	70 to 90%
B17	70 to 90%
